Measured values as given in the supplement of paper PMC9233669.
Fewer inactive variants are shown than the library holds.

Experiments:
[1] = tested on: biotinyl-Trp-oxazolone; assay: self-aminoacylation, catalytic enhancement (BWO) (fold over background); higher = more active; k-Seq, kA / k0A0; sequences stand for … in GGGAAUGGAUCCACAUCUACGAAUUC…UUCACUGCAGACUUGACGAAGCUG
Procedure, shortened: (§1)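 Each biotinyl-aminoacyl-oxazolone, at 2–1250 μM, was incubated with mutagenized RNA pools (0.43 μM) carrying a 21-nt variable region. The 50 μL reactions contained HEPES/NaCl/KCl/MgCl2/CaCl2 buffer with 5% acetonitrile at pH 6.9–7.0 and ran for 90 minutes at room temperature. After streptavidin capture, RNA was measured by qPCR in triplicate and by Illumina sequencing, and catalytic enhancement was calculated as median kA over the uncatalyzed rate from a pseudo-first-order fit of per-sequence fraction reacted.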

[2] = tested on: biotinyl-Leu-oxazolone; assay: self-aminoacylation, catalytic enhancement (BLO) (fold over background); higher = more active; k-Seq, kA / k0A0; sequences stand for … in GGGAAUGGAUCCACAUCUACGAAUUC…UUCACUGCAGACUUGACGAAGCUG
Procedure, shortened: as §1

[3] = tested on: biotinyl-Ile-oxazolone; assay: self-aminoacylation, catalytic enhancement (BIO) (fold over background); higher = more active; k-Seq, kA / k0A0; sequences stand for … in GGGAAUGGAUCCACAUCUACGAAUUC…UUCACUGCAGACUUGACGAAGCUG
Procedure, shortened: as §1

[4] = tested on: biotinyl-Met-oxazolone; assay: self-aminoacylation, catalytic enhancement (BMO) (fold over background); higher = more active; k-Seq, kA / k0A0; sequences stand for … in GGGAAUGGAUCCACAUCUACGAAUUC…UUCACUGCAGACUUGACGAAGCUG
Procedure, shortened: as §1

[5] = tested on: biotinyl-Phe-oxazolone; assay: self-aminoacylation, catalytic enhancement (BFO) (fold over background); higher = more active; k-Seq, kA / k0A0; sequences stand for … in GGGAAUGGAUCCACAUCUACGAAUUC…UUCACUGCAGACUUGACGAAGCUG
Procedure, shortened: as §1

[6] = tested on: biotinyl-Val-oxazolone; assay: self-aminoacylation, catalytic enhancement (BVO) (fold over background); higher = more active; k-Seq, kA / k0A0; sequences stand for … in GGGAAUGGAUCCACAUCUACGAAUUC…UUCACUGCAGACUUGACGAAGCUG
Procedure, shortened: as §1

Sequence	self-aminoacylation [1]	self-aminoacylation [2]	self-aminoacylation [3]	self-aminoacylation [4]	self-aminoacylation [5]	self-aminoacylation [6]
AUUUACCUACGUCAUCGGGUG [Fam2.2 aminoacylation ribozyme variant]	4.65	6.25	2.56	4.54	32.2	3.17
AUUUACCUAGGUCAUCGGGUG [Fam2.2 aminoacylation ribozyme variant]	26.1	45	18.3	33.2	235	15.4
AUUUACCUAGGUCAUCUGGUG [Fam2.2 aminoacylation ribozyme variant]	3	3.75	2.15	2.73	16.8	1.95
AUUUACCUAGGUCAUUGGGUG [Fam2.2 aminoacylation ribozyme variant]	3.11	3.79	2.34	3.54	19.7	2.26
AUUUACCUGGUCAUCGAGUGA [Fam2.1 aminoacylation ribozyme variant]	8.91	7.77	4	7.97	8.89	4.29
AUUUACCUUGGUCAUCGGGUG [Fam2.2 aminoacylation ribozyme variant]	6.6	8.83	4.48	7.16	45.7	4.81
AUUUACUUAGGUCAUCGGGUG [Fam2.2 aminoacylation ribozyme variant]	4.45	5.78	2.91	4.85	32.2	3.18
AUUUAGCUAGGUCAUCGGGUG [Fam2.2 aminoacylation ribozyme variant]	6.01	5.39	3.83	4.72	50.1	4
AUUUAUCUAGGUCAUCGGGUG [Fam2.2 aminoacylation ribozyme variant]	4.3	4.97	3.08	3.91	20.1	2.45
AUUUCCAUGGUCAUCGAGUGA [Fam2.1 aminoacylation ribozyme variant]	12	9.67	5.22	9.56	52.5	5.09
AUUUCCCGGGUCAUCGAGUGA [Fam2.1 aminoacylation ribozyme variant]	6.24	6.51	3.37	5.43	45.6	3.93
AUUUCCCUAGUCAUCGAGUGA [Fam2.1 aminoacylation ribozyme variant]	7.31	6.58	3.46	6.04	31.5	4.03
AUUUCCCUCGUCAUCGAGUGA [Fam2.1 aminoacylation ribozyme variant]	4.57	3.93	2.5	3.39	21.2	2.6
